Laboratory results published in paper PMC9133651, “Elucidation of physico-chemical principles of high-density lipoprotein–small RNA binding interactions”.

B1: miR-375-3p (ssRNA)
RNA: UUUGUUCGUUCGGCUCGCGUGA
B2: miR-223-3p (ssRNA)
RNA: UGUCAGUUUGUCAAAUACCCCA
B3: tDR-GluCTC-30 (ssRNA)
RNA: CCUGGUGGUCUAGUGGUUAGGAUUCGGCGC

Molecular target: apolipoprotein A-I (lipid-free) (Homo sapiens, UniProt P02647 25-267)
Assay: MST; Kd only in figure; MST: 100 nM AF647 oligo (90 C 2 min, cooled) mixed 1:1 with ligand in PBS, RT, 5 min; EMSA: 1 uM AF546 oligo, UV 254 nm 15 min on ice, 4-16% NativePAGE, 0.5x TBE
Conditions: protein: native; label: 3' Alexa Fluor 647

apolipoprotein A-I (lipid-free), sequence (P02647 25-267): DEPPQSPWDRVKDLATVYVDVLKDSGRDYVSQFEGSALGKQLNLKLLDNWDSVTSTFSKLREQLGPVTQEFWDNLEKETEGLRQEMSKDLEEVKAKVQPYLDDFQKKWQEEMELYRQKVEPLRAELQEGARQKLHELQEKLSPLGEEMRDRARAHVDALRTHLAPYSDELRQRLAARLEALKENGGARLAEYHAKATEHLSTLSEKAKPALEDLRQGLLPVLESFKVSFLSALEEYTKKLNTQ

| Binder | binding result |
| --- | --- |
| B1 | binds |
| B2 | binds |
| B3 | binds |
